Laboratory results as given in publication PMC3390916 (Chembiochem, 2011).

Target: growth factor receptor-bound protein 2 (Grb2), recombinant (human, UniProt P62993 1-217)
Assay: SPR

growth factor receptor-bound protein 2 (Grb2), recombinant, sequence (P62993 whole entry): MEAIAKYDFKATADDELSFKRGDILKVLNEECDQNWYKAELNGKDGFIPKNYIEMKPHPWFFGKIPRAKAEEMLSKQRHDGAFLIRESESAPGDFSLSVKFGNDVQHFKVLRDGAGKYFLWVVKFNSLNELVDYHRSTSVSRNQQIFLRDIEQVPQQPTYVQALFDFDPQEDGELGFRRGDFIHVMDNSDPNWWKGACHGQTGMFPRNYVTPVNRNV

YEVPPPVPPRRRGSC [SH3-binding peptide (YEVPPPVPPRRR)] was tested. Which Kd did it give?
Its Kd is 7.5 ± 5.7 mM.
